What all share (experiment): cell-based or functional assay
Test [1] deals with HIV-1 IAVI-C3 envelope glycoprotein (Env) on pseudovirus (HIV-1).
Test [2] deals with HIV-1 ADA Env (pseudovirus) (HIV-1 ADA).
The target of test [3] is HIV-1 APV-13 envelope glycoprotein (Env) on pseudovirus (HIV-1).
For test [4], the target named is HIV-1 Env of isolate 92RW009 (HIV-1).
Test [5] has as its target HIV-1 Env of isolate 92RW020 (HIV-1).
For test [6], the target named is HIV-1 Env of isolate 92RW021 (HIV-1).
Test [7] has as its target HIV-1 Env of isolate 93RW029 (HIV-1).
Test [8] addresses HIV-1 Env of isolate MGRM-C-027 (subtype C), on pseudovirus (HIV-1).
Test [9] has as its target HIV-1 Env of isolate MGRM-C-028 (subtype C), on pseudovirus (HIV-1).
Test [10] addresses HIV-1 Env of isolate MGRM-F1-020 (clade F), on pseudovirus (HIV-1).
Test [11] deals with HIV-1 envelope glycoprotein (Env) of isolate 93TH305, on pseudovirus (HIV-1).
Test [12] addresses HIV-1 envelope glycoprotein (Env) of isolate CAAN.A2, on pseudovirus (HIV-1).
Test [13] addresses HIV-1 envelope glycoprotein (Env) of isolate MGRM-Chronic-B-010, on pseudovirus (HIV-1).
The target in test [14] is HIV-1 envelope glycoprotein (Env) of isolate MGRM-Chronic-B-012, on pseudovirus (HIV-1).
Test [15] addresses HIV-1 92RW020 Env (pseudovirus) (HIV-1).
For test [16], the target named is HIV-1 APV13 Env (pseudovirus) (HIV-1).
Test [17] deals with HIV-1 JRFL Env (pseudovirus) (HIV-1).
The target of test [18] is HIV-1 MGRM-C-027 Env (pseudovirus) (HIV-1).
For test [19], the target named is HIV-1 MGRM-D-018 Env (pseudovirus) (HIV-1).
Test [20] has as its target HIV-1 JR-CSF Env D325A (HIV-1 isolate JR-CSF) (UniProt P20871).
The target in test [21] is HIV-1 JR-CSF Env D417A (HIV-1 (isolate JR-CSF)) (UniProt P20871).
Test [22] has as its target HIV-1 JR-CSF Env E321aA (HIV-1 isolate JR-CSF) (UniProt P20871).
In test [23] the target is HIV-1 JR-CSF Env F210A (HIV-1 JR-CSF) (UniProt P20871).
In test [24] the target is HIV-1 JR-CSF Env F317A (HIV-1 isolate JR-CSF) (UniProt P20871).
Test [25] addresses HIV-1 JR-CSF Env H330A (HIV-1 isolate JR-CSF) (UniProt P20871).
Test [26] has as its target HIV-1 JR-CSF Env I415A (HIV-1 (isolate JR-CSF)) (UniProt P20871).
Test [27] concerns the target HIV-1 JR-CSF Env I420A (HIV-1 (isolate JR-CSF)) (UniProt P20871).
The target in test [28] is HIV-1 JR-CSF Env K343A (HIV-1 isolate JR-CSF) (UniProt P20871).
Test [29] deals with HIV-1 JR-CSF Env L416A (HIV-1 (isolate JR-CSF)) (UniProt P20871).
The target of test [30] is HIV-1 JR-CSF Env N262A (HIV-1 JR-CSF) (UniProt P20871).
In test [31] the target is HIV-1 JR-CSF Env N355A (HIV-1 isolate JR-CSF) (UniProt P20871).
The target in test [32] is HIV-1 JR-CSF Env Q337A (HIV-1 isolate JR-CSF) (UniProt P20871).
The target in test [33] is HIV-1 JR-CSF Env R304A (HIV-1 JR-CSF) (UniProt P20871).
For test [34], the target named is HIV-1 JR-CSF Env R315A (HIV-1 isolate JR-CSF) (UniProt P20871).
Test [35] deals with HIV-1 JR-CSF Env S306A (HIV-1 JR-CSF) (UniProt P20871).
Test [36] addresses HIV-1 JR-CSF Env T297A (HIV-1 JR-CSF) (UniProt P20871).
Test [37] has as its target HIV-1 JR-CSF Env T303A (HIV-1 JR-CSF) (UniProt P20871).
For test [38], the target named is HIV-1 JR-CSF Env T319A (HIV-1 isolate JR-CSF) (UniProt P20871).
Test [39] concerns the target HIV-1 JR-CSF Env T320A (HIV-1 isolate JR-CSF) (UniProt P20871).
The target in test [40] is HIV-1 JR-CSF Env V292A (HIV-1 JR-CSF) (UniProt P20871).

Nine substances from patent US20200024330A1 can be followed below.

A word on the IC50: it is the concentration that gives 50% inhibition. Low values mean higher potency, high ones lower potency. As usually defined, the IC80 is the concentration at which the effect reaches the 80% level. Read a high IC80 as a need for much substance. What is called IC90 is the concentration at which the effect reaches the 90% level. A lower IC90 goes with greater potency. A word on the IC95: it is the point of the concentration-response curve where the effect stands at 95%. The low end stands for an effect from little substance, the high end for a need for much substance.

As to 2G12 (antibody), the IC90 (pseudovirus neutralization) in [1] was > 50 µg/mL.

Substance 1443_C16 (PG16) (TCN-116) (antibody) yielded an IC50 (ug/ml), neutralization in test [2] of 0.004 µg/mL. Also, the IC90 (pseudovirus neutralization) in test [3] and in [1] was > 50 µg/mL in each case.

1496_C09 (PG9) (TCN-109) (antibody) showed an IC50 (ug/ml), neutralization in test [2] of 0.2 µg/mL. Also, the IC50 in test [4] turned out to be 0.05 µg/mL; in [5], 0.141 µg/mL; in test [6] it was 0.027 µg/mL; in [7], 0.69 µg/mL. For the same substance, the IC50 (µg/mL), pseudovirus neutralization in test [8] is 5.36 µg/mL; in test [9], 0.067 µg/mL. In addition, the IC50 (µg/mL), single-round pseudovirus neutralization in test [10] turned out to be 6.4 µg/mL. In addition, the IC50, pseudovirus neutralization in [11] is 8.12 µg/mL; in test [12], 19.3 µg/mL; in [13], 0.004 µg/mL; in test [14], 0.2 µg/mL.

4838_L06 (PGT-121) (antibody): the neutralization IC80 is 0.0188 µg/mL in test [15]; 1.31 µg/mL in test [16]; 0.0806 µg/mL in test [17]; 0.0829 µg/mL in [18]; 0.0231 µg/mL in test [19]. The neutralization IC90 is 0.0361 µg/mL in test [15]; 2.8 µg/mL in test [16]; 0.151 µg/mL in test [17]; 0.374 µg/mL in test [18]; 0.0414 µg/mL in test [19]. Besides, the neutralization IC95 in [15] is 0.0671 µg/mL; in test [16] it was 5.15 µg/mL; in test [17], 0.267 µg/mL; in test [18], 3.14 µg/mL; in [19], 0.0715 µg/mL.

Take 5141_B17 (PGT-126) (antibody): the IC50 came to 0.0046 µg/mL in test [15]; 0.012 µg/mL in test [16]; 0.014 µg/mL in test [17]; 1.14 µg/mL in [18]; 0.0093 µg/mL in [19]. The IC80 in [15] is 0.0168 µg/mL; in test [16] it was 0.0411 µg/mL; in test [17] it was 0.0454 µg/mL; in test [18], > 10 µg/mL; in test [19], 0.0391 µg/mL. The IC90 in test [15] was 0.0359 µg/mL; in test [16], 0.084 µg/mL; in [17], 0.09 µg/mL; in test [18], > 10 µg/mL; in [19] it was 0.0918 µg/mL. For the same substance, the concentration for an effect of 95% (IC95) in test [15] is 0.0728 µg/mL; in test [16] it was 0.162 µg/mL; in test [17], 0.169 µg/mL; in [18] it was > 10 µg/mL; in [19] it was 0.205 µg/mL.

As for PGT-121 (antibody), the Fold IC50 increase relative to wild-type in test [20] is 2 fold; in test [21] it was 0.7 fold; in test [22], 0.3 fold; in [23], 1.5 fold; in test [24], 1.7 fold; in test [25] it was 0.8 fold. Besides, the Fold IC50 increase relative to wild-type was determined as 0.6 fold in test [26]; 3.3 fold in test [27]; 0.6 fold in test [28]; 0.6 fold in test [29]; 1.1 fold in test [30]; 1.4 fold in test [31]. Also, the Fold IC50 increase relative to wild-type in test [32] stood at 1 fold; in test [33] it was 1.7 fold; in [34], 0.9 fold; in test [35], 0.7 fold; in [36], 0.7 fold; in [37], 0.7 fold. Moreover, the Fold IC50 increase relative to wild-type in test [38] amounted to 1.3 fold; in test [39], 1.2 fold; in test [40] it was 2.7 fold.

PGT-122 (antibody): the Fold IC50 increase relative to wild-type in [20] amounted to 44 fold; in test [21] it was 0.5 fold; in test [22], 0.4 fold; in [23], 2.6 fold; in [24], 3.4 fold; in test [25], 0.5 fold. Besides, the Fold IC50 increase relative to wild-type was 0.4 fold in test [26]; 3.5 fold in test [27]; 0.3 fold in test [28]; 1 fold in [29]; 1.1 fold in test [30]; 0.8 fold in test [31]. Also, the Fold IC50 increase relative to wild-type was determined as 0.5 fold in test [32]; 0.7 fold in [33]; 0.5 fold in [34]; 0.5 fold in [35]; 0.6 fold in test [36]; 2.5 fold in [37]. In addition, the values for the Fold IC50 increase relative to wild-type in [38], in test [39] and in test [40] were 0.5 fold, 0.7 fold and 1.3 fold, respectively.

As to PGV04 (antibody), the IC50 in [4] was determined as 0.108 µg/mL; in test [5] it was 0.055 µg/mL; in test [6], 0.038 µg/mL; in test [7], 0.54 µg/mL. Besides, the IC50 (µg/mL), pseudovirus neutralization in test [8] was found to be 2.76 µg/mL; in [9], 0.149 µg/mL. In addition, the IC50 (µg/mL), single-round pseudovirus neutralization in test [10] was 5.99 µg/mL. The IC50, pseudovirus neutralization in test [11] is 0.255 µg/mL; in test [12] it was 2.26 µg/mL; in [13] it was 0.744 µg/mL; in test [14], > 50 µg/mL.

For b12 (antibody), the IC90 (pseudovirus neutralization) in test [3] was > 50 µg/mL.
